Laboratory results published in patent US12653899B2, “Multi-targeted, tunable, sustained delivery of payloads to charged avascular tissues” (Massachusetts Institute of Technology, priority 2019, dated 2026).

Tests used:
[1] = test system: human cartilage explants (knee); assay: Quantitative uptake of cationic S-GFPs into human knee cartilage explants; format: in vitro ADME; details: donor knee; PBS+1% BSA or BSF
From the text: Two human knee joint distal femurs were obtained through the Gift of Hope Organ and Tissue Donor Network (Itaska, IL). A Collins grade 0 normal knee was from a donor and a near-normal grade 1 from a person. (The Collins visual grading scale grades spans grades 0-4 [20], with grade 0=normal and grade 4=end stage osteoarthritis.) All procedures were approved by the Rush University Medical Center Institutional Review Board (ORA Number: 08082803IRB01-AM01) and the Committee on the Use of Humans as Experimental Subjects at MIT. […]
Experiments to quantify the uptake of GFPs into cartilage were started after the explants had been pre-equilibrated in culture medium for 48 h post-harvest. […] (Standard 96-well cell culture plates were not used because S-GFPs could stick to polystyrene even in the presence of BSA, leading to a loss of protein. In contrast, use of polypropylene with 1% BSA enabled complete recovery of fluorescence). […] At the same time, the fluorescence of the absorption bath was measured using a plate reader (Synergy H1, Biotek Instruments Inc.) (excitation: 485 nm, emission: 528 nm). […] At the end of the desorption in 10×PBS+1% BSA, cartilage explants were weighed and the fluorescence of the desorption bath was measured. […] The uptake ratio was calculated as the ratio of GFP concentration inside cartilage (mol/mg wet weight) to the final absorption bath concentration (mol/mL).

[2] = test system: bovine cartilage explants; assay: GFP penetration into bovine cartilage explants (confocal microscopy); format: in vitro ADME
Protocol: Bovine cartilage explants were incubated for either 24 h or 8 days (37° C., 5% CO2) in 1 μM solutions of the cationic S-GFPs dissolved in PBS+1% BSA. Similarly, explants were placed in 1 μM solutions of the neutral GFPs for either 18 h or 26 h. In a separate series of experiments, bovine cartilage explants were cultured in ultra-low attachment cell culture plates (Corning) for a period of 8 days in 1 μM solutions of cationic S-GFPs dissolved in low glucose (1 g/L) DMEM (with no phenol red) with 10% fetal bovine serum (FBS) supplemented with 2 mM Lglutamine, 100 U/mL penicillin, […] streptomycin, […] amphotericin, 10 mM HEPES buffer, 0.1 mM nonessential amino acids (NEAA) and 0.4 mM proline (37° C., 5% CO2). Media changes were performed every 48 h, and fresh cationic S-GFP were added with each media change. At the end of all such experiments, explants were sectioned longitudinally into […] slices and washed with PBS. Primary bovine chondrocytes were incubated for 24 h (37° C., 5% CO2) in 100 nM solutions of GFPs dissolved in serum-free medium having the same composition as that described in the bovine cartilage harvest section. At the end of 24 h, chondrocytes were washed three times with heparin dissolved in PBS (20 U/mL) to remove non-internalized GFPs, fixed with 4% paraformaldehyde, stained with DAPI and washed with PBS. […]

Substance	24 h uptake ratio compared among cationic S-GFPs [1]	extent of penetration into cartilage explant ([2]; 24 h in PBS+1% BSA, 1 mm thick bovine explants)	localization within cartilage explant ([2]; by day 8 in PBS+1% BSA, bovine explants)
+25 GFP: engineered supercharged green fluorescent protein carrier with net positive charge +25, SEQ ID NO: 3	significantly lower compared to the other two GFP variants	–	–
+36 GFP: engineered supercharged green fluorescent protein carrier with net positive charge +36, SEQ ID NO: 4	significantly lower compared to the other two GFP variants	did not	localized primarily inside chondrocytes throughout the tissue thickness
